Laboratory results taken from KR20230022334A (dated 2023).

Assays:
[1] = target: T1, API5(Apoptosis inhibitor protein 5) 단백질, Expi293 세포에서 일시발현 후 정제 (human, UniProt Q9BZZ5-2 1-504); assay: SPR, Biacore T200, 3F2 serially diluted 3.125-100 nM (7 points including 0 nM)
T1 construct: also called rhAPI5; AAC-11
T1 sequence: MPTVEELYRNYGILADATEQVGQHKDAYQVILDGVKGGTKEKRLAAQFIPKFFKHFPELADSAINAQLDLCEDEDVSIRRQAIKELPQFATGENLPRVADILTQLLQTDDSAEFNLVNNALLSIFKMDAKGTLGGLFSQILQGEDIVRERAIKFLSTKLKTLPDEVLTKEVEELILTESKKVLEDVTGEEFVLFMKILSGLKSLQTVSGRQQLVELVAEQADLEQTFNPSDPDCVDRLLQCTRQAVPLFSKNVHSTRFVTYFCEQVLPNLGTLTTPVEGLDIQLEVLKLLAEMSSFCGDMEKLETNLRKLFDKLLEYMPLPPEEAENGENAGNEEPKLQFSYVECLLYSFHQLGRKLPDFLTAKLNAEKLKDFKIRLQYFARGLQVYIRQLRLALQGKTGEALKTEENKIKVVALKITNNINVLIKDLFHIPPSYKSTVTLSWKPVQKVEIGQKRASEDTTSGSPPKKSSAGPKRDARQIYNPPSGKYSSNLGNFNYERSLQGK

[2] = target: T1, API5(Apoptosis inhibitor protein 5) …; assay: ELISA, 3F2 serially diluted 3.125-200 nM (8 points including 0 nM)

B1: 3F2 항체 (API5 표적 인간 항체 3F2) (antibody, V domains shown)
VH: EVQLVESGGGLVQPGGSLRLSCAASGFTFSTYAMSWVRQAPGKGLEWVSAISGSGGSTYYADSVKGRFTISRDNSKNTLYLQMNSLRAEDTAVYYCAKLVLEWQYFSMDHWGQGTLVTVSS
VL: DIQMTQSPSSLSASVGDRVTITCRASQSISRYLNWYQQKPGKAPKLLIYAASTLQSGVPSRFSGSGSGTDFTLTISSLQPEDFATYYCQQSYSFPWTFGQGTKVEIK
notes: Purified 3F2 antibody as used in the ELISA and SPR; IgG is used as the control in later experiments; also called API5 항체 3F2; 3F2 antibody
- Kd [1]: 4.62 nM
- Kd [2]: 1.2 nM
